According to the supplement of paper PMC12458215:
± gives the uncertainty stated by the source.

Test system: HEK293T
Assay: plasma membrane surface immunostaining intensity (anti-HA, deep receptor scanning) (arbitrary fluorescence units); higher = higher plasma membrane expression

Sequence	plasma membrane surface immunostaining intensity (GPCR class: A (Olfactory))	plasma membrane surface immunostaining intensity (GPCR class: A)	also measured
MEEENATLLTEFVLTGFLYQPQWKIPLFLAFLVIYLITIMGNLGLIAVIWKDPHLHIPMYLLLGNLAFVDAWISSTVTPKMLNNFLAKSKMISLSECKIQFFSFAISVTTECFLLATMAYDRYVAICKPLLYPAIMTNGLCIRLLILSYVGGILHALIHEGFLFRLTFCNSNIVHHIYCDTIPLSKISCTDSSINFLMVFIFSGSIQVFSIVTILVSYTFVLFAILKKKSDKGVRKAFSTCGAHLFSVSLYYGPLLFIYVGPASPQADDQDMVEPLFYTVIIPLLNPIIYSLRNKQVTVSFTKMLKKHVKVSY [OR5H1]	124 ± 20	–	–
MEEENATLLTEFVLTGFLYQPQWKIPLFLAFLVIYLITIMGNLGLIAVIWKDPHLHIPMYLLLGNLAFVDAWISSTVTPKMLNNFLAKSKMISLSECKIQFFSIAIGVTTECFLLATMAYDRYVAICKPLLYPAIMTNGLCIRLLILSYIAGILHALIHEGFLFRLTFCNSNIVHHIYCDTIPLSKISCTDSSINFLMVFIFSGSIQVFSIVTILISYTFVLFTVLEKKSDKGVRKAFSTCGAHLFSVCLYYGPLLLMYVGPASPQADGQNMVEPLFYTVIIPLLNPIIYSLRNKQVIVSFIKMLKRNVKVSY [OR5H15]	181 ± 56	–	–
MEEGGDFDNYYGADNQSECEYTDWKSSGALIPAIYMLVFLLGTTGNGLVLWTVFRSSREKRRSADIFIASLAVADLTFVVTLPLWATYTYRDYDWPFGTFFCKLSSYLIFVNMYASVFCLTGLSFDRYLAIVRPVANARLRLRVSGAVATAVLWVLAALLAMPVMVLRTTGDLENTTKVQCYMDYSMVATVSSEWAWEVGLGVSSTTVGFVVPFTIMLTCYFFIAQTIAGHFRKERIEGLRKRRRLLSIIVVLVVTFALCWMPYHLVKTLYMLGSLLHWPCDFDLFLMNIFPYCTCISYVNSCLNPFLYAFFDPRFRQACTSMLCCGQSRCAGTSHSSSGEKSASYSSGHSQGPGPNMGKGGEQMHEKSIPYSQETLVVD [APLNR]	–	6400 ± 84	–
MEETNNSSEKGFLLLGFSDQPQLERFLFAIILYFYVLSLLGNTALILVCCLDSRLHTPMYFFLSNLSCVDICFTTSVAPQLLVTMNKKDKTMSYGGCVAQLYVAMGLGSSECILLAVMAYDRYAAVCRPLRYIAIMHPRFCASLAGGAWLSGLITSLIQCSLTVQLPLCGHRTLDHIFCEVPVLIKLACVDTTFNEAELFVASVVFLIVPVLLILVSYGFITQAVLRIKSAAGRQKAFGTCSSHLVVVIIFYGTIIFMYLQPANRRSKNQGKFVSLFYTIVTPLLNPIIYTLRNKDVKGALRTLILGSAAGQSHKD [OR2G6]	122 ± 18	–	–
MEGALAANWSAEAANASAAPPGAEGNRTAGPPRRNEALARVEVAVLCLILLLALSGNACVLLALRTTRQKHSRLFFFMKHLSIADLVVAVFQVLPQLLWDITFRFYGPDLLCRLVKYLQVVGMFASTYLLLLMSLDRCLAICQPLRSLRRRTDRLAVLATWLGCLVASAPQVHIFSLREVADGVFDCWAVFIQPWGPKAYITWITLAVYIVPVIVLAACYGLISFKIWQNLRLKTAAAAAAEAPEGAAAGDGGRVALARVSSVKLISKAKIRTVKMTFIIVLAFIVCWTPFFFVQMWSVWDANAPKEASAFIIVMLLASLNSCCNPWIYMLFTGHLFHELVQRFLCCSASYLKGRRLGETSASKKSNSSSFVLSHRSSSQRSCSQPSTA [OXTR]	–	5390 ± 230	–
MEGDSYHNATTVNGTPVNHQPLERHRLWEVITIAAVTAVVSLITIVGNVLVMISFKVNSQLKTVNNYYLLSLACADLIIGIFSMNLYTTYILMGRWALGSLACDLWLALDYVASNASVMNLLVISFDRYFSITRPLTYRAKRTPKRAGIMIGLAWLISFILWAPAILCWQYLVGKRTVPLDECQIQFLSEPTITFGTAIAAFYIPVSVMTILYCRIYRETEKRTKDLADLQGSDSVTKAEKRKPAHRALFRSCLRCPRPTLAQRERNQASWSSSRRSTSTTGKPSQATGPSANWAKAEQLTTCSSYPSSEDEDKPATDPVLQVVYKSQGKESPGEEFSAEETEETFVKAETEKSDYDTPNYLLSPAAAHRPKSQKCVAYKFRLVVKADGNQETNNGCHKVKIMPCPFPVAKEPSTKGLNPNPSHQMTKRKRVVLVKERKAAQTLSAILLAFIITWTPYNIMVLVSTFCDKCVPVTLWHLGYWLCYVNSTVNPICYALCNRTFRKTFKMLLLCRWKKKKVEEKLYWQGNSKLP [CHRM5]	–	1470 ± 190	–
MEGISIYTSDNYTEEMGSGDYDSMKEPCFREENANFNKIFLPTIYSIIFLTGIVGNGLVILVMGYQKKLRSMTDKYRLHLSVADLLFVITLPFWAVDAVANWYFGNFLCKAVHVIYTVNLYSSVLILAFISLDRYLAIVHATNSQRPRKLLAEKVVYVGVWIPALLLTIPDFIFANVSEADDRYICDRFYPNDLWVVVFQFQHIMVGLILPGIVILSCYCIIISKLSHSKGHQKRKALKTTVILILAFFACWLPYYIGISIDSFILLEIIKQGCEFENTVHKWISITEALAFFHCCLNPILYAFLGAKFKTSAQHALTSVSRGSSLKILSKGKRGGHSSVSTESESSSFHSS [CXCR4]	–	814 ± 140	–
MEGNKTWITDITLPRFQVGPALEILLCGLFSAFYTLTLLGNGVIFGIICLDCKLHTPMYFFLSHLAIVDISYASNYVPKMLTNLMNQESTISFFPCIMQTFLYLAFAHVECLILVVMSYDRYADICHPLRYNSLMSWRVCTVLAVASWVFSFLLALVPLVLILSLPFCGPHEINHFFCEILSVLKLACADTWLNQVVIFAACVFILVGPLCLVLVSYLRILAAILRIQSGEGRRKAFSTCSSHLCVVGLFFGSAIVTYMAPKSRHPEEQQKVLSLFYSLFNPMLNPLIYSLRNAEVKGALRRALRKERLT [OR2A14]	121 ± 40	–	–
MEGNQTWITDITLLGFQVGPALAILLCGLFSVFYTLTLLGNGVIFGIICLDSKLHTPMYFFLSHLAIIDMSYASNNVPKMLANLMNQKRTISFVPCIMQTFLYLAFAVTECLILVVMSYDRYVAICHPFQYTVIMSWRVCTILVLTSWSCGFALSLVHEILLLRLPFCGPRDVNHLFCEILSVLKLACADTWVNQVVIFATCVFVLVGPLSLILVSYMHILGAILKIQTKEGRIKAFSTCSSHLCVVGLFFGIAMVVYMVPDSNQREEQEKMLSLFHSVFNPMLNPLIYSLRNAQLKGALHRALQRKRSMRTVYGLCL [OR2A2]	129 ± 17	–	–
MEHTHAHLAANSSLSWWSPGSACGLGFVPVVYYSLLLCLGLPANILTVIILSQLVARRQKSSYNYLLALAAADILVLFFIVFVDFLLEDFILNMQMPQVPDKIIEVLEFSSIHTSIWITVPLTIDRYIAVCHPLKYHTVSYPARTRKVIVSVYITCFLTSIPYYWWPNIWTEDYISTSVHHVLIWIHCFTVYLVPCSIFFILNSIIVYKLRRKSNFRLRGYSTGKTTAILFTITSIFATLWAPRIIMILYHLYGAPIQNRWLVHIMSDIANMLALLNTAINFFLYCFISKRFRTMAAATLKAFFKCQKQPVQFYTNHNFSITSSPWISPANSHCIKMLVYQYDKNGKPIKVSP [GPR139]	–	3010 ± 800	–
MEIVSTGNETITEFVLLGFYDIPELHFLFFIVFTAVYVFIIIGNMLIIVAVVSSQRLHKPMYIFLANLSFLDILYTSAVMPKMLEGFLQEATISVAGCLLQFFIFGSLATAECLLLAVMAYDRYLAICYPLHYPLLMGPRRYMGLVVTTWLSGFVVDGLVVALVAQLRFCGPNHIDQFYCDFMLFVGLACSDPRVAQVTTLILSVFCLTIPFGLILTSYARIVVAVLRVPAGASRRRAFSTCSSHLAVVTTFYGTLMIFYVAPSAVHSQLLSKVFSLLYTVVTPLFNPVIYTMRNKEVHQALRKILCIKQTETLD [OR11A1]	398 ± 120	–	–
MEKANETSPVMGFVLLRLSAHPELEKTFFVLILLMYLVILLGNGVLILVTILDSRLHTPMYFFLGNLSFLDICFTTSSVPLVLDSFLTPQETISFSACAVQMALSFAMAGTECLLLSMMAFDRYVAICNPLRYSVIMSKAAYMPMAASSWAIGGAASVVHTSLAIQLPFCGDNVINHFTCEILAVLKLACADISINVISMEVTNVIFLGVPVLFISFSYVFIITTILRIPSAEGRKKVFSTCSAHLTVVIVFYGTLFFMYGKPKSKDSMGADKEDLSDKLIPLFYGVVTPMLNPIIYSLRNKDVKAAVRRLLRPKGFTQ [OR2S2]	120 ± 24	–	–
MEKLLRLCCWYSWLLLFYYNFQVRGVYSRSQDHPGFQVLASASHYWPLENVDGIHELQDTTGDIVEGKVNKGIYLKEEKGVTLLYYGRYNSSCISKPEQCGPEGVTFSFFWKTQGEQSRPIPSAYGGQVISNGFKVCSSGGRGSVELYTRDNSMTWEASFSPPGPYWTHVLFTWKSKEGLKVYVNGTLSTSDPSGKVSRDYGESNVNLVIGSEQDQAKCYENGAFDEFIIWERALTPDEIAMYFTAAIGKHALLSSTLPSLFMTSTASPVMPTDAYHPIITNLTEERKTFQSPGVILSYLQNVSLSLPSKSLSEQTALNLTKTFLKAVGEILLLPGWIALSEDSAVVLSLIDTIDTVMGHVSSNLHGSTPQVTVEGSSAMAEFSVAKILPKTVNSSHYRFPAHGQSFIQIPHEAFHRHAWSTVVGLLYHSMHYYLNNIWPAHTKIAEAMHHQDCLLFATSHLISLEVSPPPTLSQNLSGSPLITVHLKHRLTRKQHSEATNSSNRVFVYCAFLDFSSGEGVWSNHGCALTRGNLTYSVCRCTHLTNFAILMQVVPLELARGHQVALSSISYVGCSLSVLCLVATLVTFAVLSSVSTIRNQRYHIHANLSFAVLVAQVLLLISFRLEPGTTPCQVMAVLLHYFFLSAFAWMLVEGLHLYSMVIKVFGSEDSKHRYYYGMGWGFPLLICIISLSFAMDSYGTSNNCWLSLASGAIWAFVAPALFVIVVNIGILIAVTRVISQISADNYKIHGDPSAFKLTAKAVAVLLPILGTSWVFGVLAVNGCAVVFQYMFATLNSLQGLFIFLFHCLLNSEVRAAFKHKTKVWSLTSSSARTSNAKPFHSDLMNGTRPGMASTKLSPWDKSSHSAHRVDLSAV [ADGRD1]	–	–	plasma membrane surface immunostaining intensity (GPCR class: B): 1550 ± 390
MEKWNHTSNDFILLGLLPPNQTGIFLLCLIILIFFLASVGNSAMIHLIHVDPRLHTPMYFLLSQLSLMDLMYISTTVPKMAYNFLSGQKGISFLGCGVQSFFFLTMACSEGLLLTSMAYDRYLAICHSLYYPIRMSKMMCVKMIGGSWTLGSINSLAHTVFALHIPYCRSRAIDHFFCDVPAMLLLACTDTWVYEYMVFVSTSLFLLFPFIGITSSCGRVLFAVYHMHSKEGRKKAFTTISTHLTVVIFYYAPFVYTYLRPRNLRSPAEDKILAVFYTILTPMLNPIIYSLRNKEVLGAMRRVFGIFSFLKE [OR2L13]	139 ± 4.1	–	–
MELAVGNLSEGNASWPEPPAPEPGPLFGIGVENFVTLVVFGLIFALGVLGNSLVITVLARSKPGKPRSTTNLFILNLSIADLAYLLFCIPFQATVYALPTWVLGAFICKFIHYFFTVSMLVSIFTLAAMSVDRYVAIVHSRRSSSLRVSRNALLGVGCIWALSIAMASPVAYHQGLFHPRASNQTFCWEQWPDPRHKKAYVVCTFVFGYLLPLLLICFCYAKVLNHLHKKLKNMSKKSEASKKKTAQTVLVVVVVFGISWLPHHIIHLWAEFGVFPLTPASFLFRITAHCLAYSNSSVNPIIYAFLSENFRKAYKQVFKCHIRKDSHLSDTKESKSRIDTPPSTNCTHV [GALR1]	–	6490 ± 69	–
MELLKLNRSVQGTGPGPGASLCRPGAPLLNSSSVGNLSCEPPRIRGAGTRELELAIRITLYAVIFLMSVGGNMLIIVVLGLSRRLRTVTNAFLLSLAVSDLLLAVACMPFTLLPNLMGTFIFGTVICKAVSYLMGVSVSVSTLSLVAIALERYSAICRPLQARVWQTRSHAARVIVATWLLSGLLMVPYPVYTVVQPVGPRVLQCVHRWPSARVRQTWSVLLLLLLFFIPGVVMAVAYGLISRELYLGLRFDGDSDSDSQSRVRNQGGLPGAVHQNGRCRPETGAVGEDSDGCYVQLPRSRPALELTALTAPGPGSGSRPTQAKLLAKKRVVRMLLVIVVLFFLCWLPVYSANTWRAFDGPGAHRALSGAPISFIHLLSYASACVNPLVYCFMHRRFRQACLETCARCCPRPPRARPRALPDEDPPTPSIASLSRLSYTTISTLGPG [CCKBR]	–	2920 ± 830	–
